Laboratory results: patent US20070065890

Experiments:
[1] = biological target: purified recombinant HA-H1b (expressed in E. coli), P10412
[2] = biological target: histone H1 (purified calf thymus H1)
[3] = biological target: H1 histones isolated from cells treated with TSA and nicotinamide, P10412
Chain of H1 histones isolated from cells treated with TSA and nicotinamide, P10412 (P10412 whole entry, looked up): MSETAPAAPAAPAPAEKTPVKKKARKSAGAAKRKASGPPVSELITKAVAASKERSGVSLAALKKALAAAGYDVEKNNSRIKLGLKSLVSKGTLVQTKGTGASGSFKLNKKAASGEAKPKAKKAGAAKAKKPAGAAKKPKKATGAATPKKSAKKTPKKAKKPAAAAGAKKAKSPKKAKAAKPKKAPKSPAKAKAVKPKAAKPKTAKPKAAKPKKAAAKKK

Chain of purified recombinant HA-H1b (expressed in E. coli), P10412 (P10412 whole entry, looked up): as above

B1: recombinant SirT3 (protein)
chain: MAFWGWRAAAALRLWGRVVERVEAGGGVGPFQACGCRLVLGGRDDVSAGLRGSHGARGEPLDPARPLQRPPRPEVPRAFRRQPRAAAPSFFFSSIKGGRRSISFSVGASSVVGSGGSSDKGKLSLQDVAELIRARACQRVVVMVGAGISTPSGIPDFRSPGSGLYSNLQQYDLPYPEAIFELPFFFHNPKPFFTLAKELYPGNYKPNVTHYFLRLLHDKGLLLRLYTQNIDGLERVSGIPASKLVEAHGTFASATCTVCQRPFPGEDIRADVMADRVPRCPVCTGVVKPDIVFFGEPLPQRFLLHVVDFPMADLLLILGTSLEVEPFASLTEAVRSSVPRLLINRDLVGPLAWHPRSRDVAQLGDVVHGVESLVELLGWTEEMRDLVQRETGKLDGPDK
In the case of B1, the “release of [3H]-acetyl label from p300-acetylated recombinant H1b” value [1] is reported as “SirT2 or SirT3 failed to significantly deacetylate H1b”.

B2: baculovirus-expressed recombinant FLAG-SirT1 protein (protein)
chain: MADEAALALQPGGSPSAAGADREAASSPAGEPLRKRPRRDGPGLERSPGEPGGAAPEREVPAAARGCPGAAAAALWREAEAEAAAAGGEQEAQATAAAGEGDNGPGLQGPSREPPLADNLYDEDDDDEGEEEEEAAAAAIGYRDNLLFGDEIITNGFHSCESDEEDRASHASSSDWTPRPRIGPYTFVQQHLMIGTDPRTILKDLLPETIPPPELDDMTLWQIVINILSEPPKRKKRKDINTIEDAVKLLQECKKIIVLTGAGVSVSCGIPDFRSRDGIYARLAVDFPDLPDPQAMFDIEYFRKDPRPFFKFAKEIYPGQFQPSLCHKFIALSDKEGKLLRNYTQNIDTLEQVAGIQRIIQCHGSFATASCLICKYKVDCEAVRGDIFNQVVPRCPRCPADEPLAIMKPEIVFFGENLPEQFHRAMKYDKDEVDLLIVIGSSLKVRPVALIPSSIPHEVPQILINREPLPHLHFDVELLGDCDVIINELCHRLGGEYAKLCCNPVKLSEITEKPPRTQKELAYLSELPPTPLHVSEDSSSPERTSPPDSSVIVTLLDQAAKSNDDLDVSESKGCMEEKPQEVQTSRNVESIAEQMENPDLKNVGSSTGEKNERTSVAGTVRKCWPNRVAKEQISRRLDGNQYLFLPPNRYIFHGAEVYSDSEDDVLSSSSCGSNSDSGTCQSPSLEEPMEDESEIEEFYNGLEDEPDVPERAGGAGFGTDGDDQEAINEAISVKQEVTDMNYPSNKS
In the case of B2, the “nicotinamide exchange reaction (NER) with H1 as acetylated substrate” value [2] is reported as “Histone H1 served as substrate in the SirT1-dependent NER assay”, the “release of [3H]-acetyl label from p300-acetylated H1” value [2] is reported as “SirT1 -released up to 70% of the total label” and the “western blot with the acetyl H1-K26 antibody after treatment with SirT1” value [3] is reported as “resulted in decreased immunoreactivity”. For the same protein, the “release of [3H]-acetyl label from p300-acetylated recombinant H1b” value [1] was “The same result was observed using recombinant human H1b”.

B3: recombinant SirT2 (protein)
chain: MAEPDPSHPLETQAGKVQEAQDSDSDSEGGAAGGEADMDFLRNLFSQTLSLGSQKERLLDELTLEGVARYMQSERCRRVICLVGAGISTSAGIPDFRSPSTGLYDNLEKYHLPYPEAIFEISYFKKHPEPFFALAKELYPGQFKPTICHYFMRLLKDKGLLLRCYTQNIDTLERIAGLEQEDLVEAHGTFYTSHCVSASCRHEYPLSWMKEKIFSEVTPKCEDCQSLVKPDIVFFGESLPARFFSCMQSDFLKVDLLLVMGTSLQVQPFASLISKAPLSTPRLLINKEKAGQSDPFLGMIMGLGGGMDFDSKKAYRDVAWLGECDQGCLALAELLGWKKELEDLVRREHASIDAQSGAGVPNPSTSASPKKSPPPAKDEARTTEREKPQ
With B3 the “release of [3H]-acetyl label from p300-acetylated recombinant H1b” value [1] was “SirT2 or SirT3 failed to significantly deacetylate H1b”.
